Measured values from publication PMC1450317.

Molecular target: T1, TSLP receptor (TSLPR) (mouse (endogenous in mouse thymocytes)) (UniProt Q8CII9)
T1 sequence: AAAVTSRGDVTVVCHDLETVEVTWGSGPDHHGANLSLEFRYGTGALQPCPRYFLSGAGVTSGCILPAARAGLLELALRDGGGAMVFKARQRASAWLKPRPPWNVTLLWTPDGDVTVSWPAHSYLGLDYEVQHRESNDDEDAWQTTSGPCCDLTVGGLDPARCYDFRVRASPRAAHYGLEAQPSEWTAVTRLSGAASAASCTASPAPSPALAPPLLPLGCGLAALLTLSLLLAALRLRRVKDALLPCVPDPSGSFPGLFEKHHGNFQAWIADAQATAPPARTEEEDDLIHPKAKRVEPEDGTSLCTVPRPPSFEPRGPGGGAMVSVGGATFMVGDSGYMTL

FoxP3 mRNA (real-time PCR, FoxP3/18S) in purified CD4+CD8-CD25+ adult thymocytes cultured with TSLP for two days: 2 fold
FoxP3 mRNA (real-time PCR, FoxP3/18S) in purified CD4+CD8-CD25- adult thymocytes cultured with TSLP for two days: 10 fold
B1: thymic stromal derived lymphopoietin (TSLP), recombinant mouse (ligand)
chain: YNFSNCNFTSITKIYCNIIFHDLTGDLKGAKFEQIEDCESKPACLLKIEYYTLNPIPGCPSLPDKTFARRTREALNDHCPGYPETERNDGTQEMAQEVQNICLNQTSQILRLWYSFMQSPE
